In assay [1] the target is T1, CUB domain-containing protein 1 (CDCP1), human, on the surface of human bladder cancer cell lines (human, UniProt Q9H5V8 30-836).
T1 construct: whole, on cells; Endogenous CDCP1 on UMUC3, TCC SUP, 5637, UMUC9 and other bladder cancer lines; also called SIMA135; CD318
T1 sequence (looked up): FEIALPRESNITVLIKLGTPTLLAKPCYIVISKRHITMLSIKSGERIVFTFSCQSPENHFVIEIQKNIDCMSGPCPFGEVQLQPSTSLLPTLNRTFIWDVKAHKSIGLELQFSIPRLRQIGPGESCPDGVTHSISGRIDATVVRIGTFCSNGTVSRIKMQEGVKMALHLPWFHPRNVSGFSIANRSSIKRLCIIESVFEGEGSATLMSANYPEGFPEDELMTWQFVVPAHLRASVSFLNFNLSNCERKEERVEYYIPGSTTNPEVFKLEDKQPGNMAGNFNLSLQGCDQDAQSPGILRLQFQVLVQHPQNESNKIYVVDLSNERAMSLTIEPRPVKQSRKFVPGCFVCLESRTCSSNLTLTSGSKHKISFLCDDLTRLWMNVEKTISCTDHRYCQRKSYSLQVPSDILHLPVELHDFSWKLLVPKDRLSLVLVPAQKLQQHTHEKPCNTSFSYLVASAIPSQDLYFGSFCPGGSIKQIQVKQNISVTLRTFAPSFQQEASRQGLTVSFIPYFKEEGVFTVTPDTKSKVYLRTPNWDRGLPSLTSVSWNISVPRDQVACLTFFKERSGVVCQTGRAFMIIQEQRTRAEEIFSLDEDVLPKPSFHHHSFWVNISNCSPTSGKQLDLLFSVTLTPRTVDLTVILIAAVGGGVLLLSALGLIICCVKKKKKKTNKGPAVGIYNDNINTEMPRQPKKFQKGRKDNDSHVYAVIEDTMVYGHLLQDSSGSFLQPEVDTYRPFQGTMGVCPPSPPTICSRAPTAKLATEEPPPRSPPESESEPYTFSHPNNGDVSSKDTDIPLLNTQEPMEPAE
In words: flow cytometry on human bladder cancer cell lines (5637, HT-1197, HT-1397, UMUC9, 639V, T24, 253JBV, UMUC3, TCCSUP). On the procedure:
Flow Cytometry. Cells were trypsinized and washed, and then incubated with either a PE-anti-CDCP1 antibody (Biolegend #324017, 1:100) or 4A06 for 30 minutes on ice. For cells incubated with unlabeled 4A06, after the 30 min incubation, the cells were washed with PBS multiple times and placed in a fluorophore conjugated secondary antibody solution for 30 minutes on ice (1:1000, 109-546-097, Jackson ImmunoResearch). Cells were collected and washed before being placed in PBS and passed through a cell strainer. Cells were analyzed using an Attune NxT Flow and data were analyzed using FlowJo software.
(§1) CDCP1 protein expression in human bladder cancer cell lines representing luminal (5637, HT-1197, HT-1397, UMUC9) and basal subtypes (639V, T24, 253JBV, UMUC3, TCCSUP) was evaluated. […] UMUC3 and TCC SUP had the highest expression of CDCP1, while UMUC9 and 253 JBV had the lowest relative level. Cell surface receptor numbers were further quantified using ¹²⁵I-labeled 4A06 antibody.
Background: A flow cytometer gives signals particle by particle.

Assay [2] concerns the target T1, CUB domain-containing protein 1 …. In words: saturation binding of 125I-4A06 on UMUC3 cells. The method, then:
(§2) Saturation binding assays. ¹²⁵I-4A06 was prepared as previously reported (Moroz et al., Clin Cancer Res, 6(14):3608-3615, 2020). The final yield of purified ¹²⁵I-4A06 was ˜60% (specific activity ˜1 μCi/μg) and purity was >99%. UMUC3, TCC SUP, 5637, and UMUC9 cells (0.6×10⁶ cell/well) were seeded on 12-well plates using DMEM (10% FBS). The cells were washed with PBS for the saturation binding assay. Total binding of ¹²⁵I-4A06 was determined by adding it to cell suspensions at seven concentrations from 0.025 nM to 10 nM. Non-specific binding was determined by adding 1000× cold 4A06 to ¹²⁵I-4A06/cell mixtures at three concentrations. Cells were incubated with ˜0.5 μCi ¹²⁵I-4A06 at room temperature for 1 hr, washed with PBS, and lysed by adding 1.0 M NaOH. The bound and unbound radioactive fractions were collected and measured on a Hidex Gamma counter (Turku, FI). Bmax was calculated using Prism v8.0.
as §1

Assay [3] has the same target. In words: saturation binding of 125I-4A06 on 5637 cells. On the procedure: as §2, §1
The target is the same in assay [4]. In words: saturation binding of 125I-4A06 on UMUC9 cells. On the procedure: as §2, §1
The target is the same in assay [5]. The assay can be described thus: saturation binding of 125I-4A06 on TCC SUP cells. The method, then: as §2, §1

B1: recombinant monoclonal antibody 4A06 (IgG1 format) (antibody, V domains shown)
VH: EVQLVESGGGLVQPGGSLRLSCAASGFNLSYYYIHWVRQAPGKGLEWVASIYSSSSYTSYADSVKGRFTISADTSKNTAYLQMNSLRAEDTAVYYCARAYYGFDYWGQGTLVTVSS
VL: DIQMTQSPSSLSASVGDRVTITCRASQSVSSAVAWYQQKPGKAPKLLIYSASSLYSGVPSRFSGSRSGTDFTLTISSLQPEDFATYYCQQSYYYYPITFGQGTKVEIK
notes: Used unlabelled in flow cytometry, detected with a fluorophore-conjugated secondary antibody; also called CDCP1-002; 4A06 antibody
B1: in assay [1], the binding result was “binds”.

B2: 125I-labeled 4A06 antibody (antibody, V domains shown)
VH: B1 VH
VL: B1 VL
modifications: radioiodinated with iodine-125; labelled residues not stated
notes: specific activity ~1 uCi/ug, purity >99%); also called ^125I-4A06; 125I-4A06
As to B2, the Kd – broadly, a measure of binding affinity in units of concentration – in assay [2] came to 1840 pM; in assay [3], 284 pM; in assay [4], 181 pM; in assay [5], 583 pM.

Source of the values: patent publication US20240366814A1 (University of California, published 2024).
